The results in this text go back to patent US20230184768A1 (MESO SCALE TECHNOLOGIES, published 2023).

In this assay the target is T1, labeled ACE2 (angiotensin-converting enzyme 2) (human, UniProt Q9BYF1 18-740).
T1 construct: also called ACE2 detection reagent
The assay is described as follows: labeled ACE2 on immobilized Mixed Panel, ECL.

T1 sequence (Q9BYF1 18-740 limits assumed): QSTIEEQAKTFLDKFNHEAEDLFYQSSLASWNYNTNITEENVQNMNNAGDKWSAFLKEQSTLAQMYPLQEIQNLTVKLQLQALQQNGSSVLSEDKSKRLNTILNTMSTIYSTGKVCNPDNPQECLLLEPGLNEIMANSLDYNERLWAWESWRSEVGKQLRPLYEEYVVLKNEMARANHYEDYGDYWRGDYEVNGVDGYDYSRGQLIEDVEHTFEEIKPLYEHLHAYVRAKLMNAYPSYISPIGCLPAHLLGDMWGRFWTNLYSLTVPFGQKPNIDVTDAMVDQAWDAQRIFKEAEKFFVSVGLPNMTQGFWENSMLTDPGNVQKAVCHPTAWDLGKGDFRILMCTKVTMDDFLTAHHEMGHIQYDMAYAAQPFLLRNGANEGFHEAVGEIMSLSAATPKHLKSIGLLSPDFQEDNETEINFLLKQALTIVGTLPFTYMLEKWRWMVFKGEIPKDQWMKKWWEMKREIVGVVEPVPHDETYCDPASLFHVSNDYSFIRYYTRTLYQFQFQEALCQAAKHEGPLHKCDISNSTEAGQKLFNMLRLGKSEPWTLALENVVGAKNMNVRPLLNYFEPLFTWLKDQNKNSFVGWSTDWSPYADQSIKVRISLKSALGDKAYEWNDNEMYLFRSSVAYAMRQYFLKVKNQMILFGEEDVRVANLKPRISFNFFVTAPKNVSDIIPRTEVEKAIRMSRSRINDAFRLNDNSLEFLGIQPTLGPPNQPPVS

B1: HCoV-OC43 S protein (other)
chain: AVIGDLKCTSDNINDKDTGPPPISTDTVDVTNGLGTYYVLDRVYLNTTLFLNGYYPTSGSTYRNMALKGSVLLSRLWFKPPFLSDFINGIFAKVKNTKVIKDRVMYSEFPAITIGSTFVNTSYSVVVQPRTINSTQDGDNKLQGLLEVSVCQYNMCEYPQTICHPNLGNHRKELWHLDTGVVSCLYKRNFTYDVNADYLYFHFYQEGGTFYAYFTDTGVVTKFLFNVYLGMALSHYYVMPLTCNSKLTLEYWVTPLTSRQYLLAFNQDGIIFNAEDCMSDFMSEIKCKTQSIAPPTGVYELNGYTVQPIADVYRRKPNLPNCNIEAWLNDKSVPSPLNWERKTFSNCNFNMSSLMSFIQADSFTCNNIDAAKIYGMCFSSITIDKFAIPNGRKVDLQLGNLGYLQSFNYRIDTTATSCQLYYNLPAANVSVSRFNPSTWNKRFGFIEDSVFKPRPAGVLTNHDVVYAQHCFKAPKNFCPCKLNGSCVGSGPGKNNGIGTCPAGTNYLTCDNLCTPDPITFTGTYKCPQTKSLVGIGEHCSGLAVKSDYCGGNSCTCRPQAFLGWSADSCLQGDKCNIFANFILHDVNSGLTCSTDLQKANTDIILGVCVNYDLYGILGQGIFVEVNATYYNSWQNLLYDSNGNLYGFRDYIINRTFMIRSCYSGRVSAAFHANSSEPALLFRNIKCNYVFNNSLTRQLQPINYFDSYLGCVVNAYNSTAISVQTCDLTVGSGYCVDYSKNRRSRGAITTGYRFTNFEPFTVNSVNDSLEPVGGLYEIQIPSEFTIGNMVEFIQTSSPKVTIDCAAFVCGDYAACKSQLVEYGSFCDNINAILTEVNELLDTTQLQVANSLMNGVTLSTKLKDGVNFNVDDINFSPVLGCLGSECSKASSRSAIEDLLFDKVKLSDVGFVEAYNNCTGGAEIRDLICVQSYKGIKVLPPLLSENQISGYTLAATSASLFPPWTAAAGVPFYLNVQYRINGLGVTMDVLSQNQKLIANAFNNALYAIQEGFDATNSALVKIQAVVNANAEALNNLLQQLSNRFGAISASLQEILSRLDALEAEAQIDRLINGRLTALNAYVSQQLSDSTLVKFSAAQAMEKVNECVKSQSSRINFCGNGNHIISLVQNAPYGLYFIHFSYVPTKYVTARVSPGLCIAGDRGIAPKSGYFVNVNNTWMYTGSGYYYPEPITENNVVVMSTCAVNYTKAPYVMLNTSIPNLPDFKEELDQWFKNQTSVAPDLSLDYINVTFLDLQVEMNRLQEAIKVLNQSYINLKDIGTYE
notes: also called HCoV-OC43 spike protein
B1: the binding result is given as “no binding”.
